The labels stand for the following.
B1: Pistol ribozyme (parent)
chain: GGGUCGUUGUUCCAUAAUCGCGUGGAUAUGGCACGCAAGUUUCUACCGGGCACCGUAAAUGUCCGACUGGAGCCGUUCGGGCGGCUAUAAACAGACCUCAGGCCCGAAGCGUGGCGGCACCUGCCGCCGGUGGUAAAAAAGAUCGGAAGAGCACACGUCU

Variants of B1 are the subject of this series. In words: aptazyme ON/OFF ratio, guanine; higher = stronger switching; co-transcriptional cleavage with and without guanine.
For GGGUCGACGCUACAUAAUCGCGUGGAUAUGGCACGCAAGUUUCUACCGGGCACCGUAAAUGUCCGACUGGAGCCGUUCGGGCGGCUAUAAACAGACCUCAGGCCCGAAGCGUGGCGGCACCUGCCGCCGGUGGUAAAAAAGAUCGGAAGAGCACACGUCU [U7A U8C U10C C12A], the “aptazyme ON/OFF ratio” value stood at 1.32.

Turning to GGGUCGAGGUCGCAUAAUCGCGUGGAUAUGGCACGCAAGUUUCUACCGGGCACCGUAAAUGUCCGACUGGAGCCGUUCGGGCGGCUAUAAACAGACCUCAGGCCCGAAGCGUGGCGGCACCUGCCGCCGGUGGUAAAAAAGAUCGGAAGAGCACACGUCU [U7A U8G U11C C12G], the “aptazyme ON/OFF ratio” value was determined as 1.05.

As for GGGUCGGCUGUUGAUAAUCGCGUGGAUAUGGCACGCAAGUUUCUACCGGGCACCGUAAAUGUCCGACUGGAGCCGUUCGGGCGGCUAUAAACAGACCUCAGGCCCGAAGCGUGGCGGCACCUGCCGCCGGUGGUAAAAAAGAUCGGAAGAGCACACGUCU [U7G U8C G9U U10G C12U C13G], the “aptazyme ON/OFF ratio” value is 1.39.

GGGUCGGGGUAGGAUAAUCGCGUGGAUAUGGCACGCAAGUUUCUACCGGGCACCGUAAAUGUCCGACUGGAGCCGUUCGGGCGGCUAUAAACAGACCUCAGGCCCGAAGCGUGGCGGCACCUGCCGCCGGUGGUAAAAAAGAUCGGAAGAGCACACGUCU [U7G U8G U11A C12G C13G]: the “aptazyme ON/OFF ratio” value was determined as 1.15.

Regarding GGGUCGGAAAUCGAUAAUCGCGUGGAUAUGGCACGCAAGUUUCUACCGGGCACCGUAAAUGUCCGACUGGAGCCGUUCGGGCGGCUAUAAACAGACCUCAGGCCCGAAGCGUGGCGGCACCUGCCGCCGGUGGUAAAAAAGAUCGGAAGAGCACACGUCU [U7G U8A G9A U10A C13G], the “aptazyme ON/OFF ratio” value is 1.1.

For the variant GGGUCGACACCAUAUAAUCGCGUGGAUAUGGCACGCAAGUUUCUACCGGGCACCGUAAAUGUCCGACUGGAGCCGUUCGGGCGGCUAUAAACAGACCUCAGGCCCGAAGCGUGGCGGCACCUGCCGCCGGUGGUAAAAAAGAUCGGAAGAGCACACGUCU [U7A U8C G9A U10C U11C C12A C13U], the “aptazyme ON/OFF ratio” value was 1.04.

For the variant GGGUCGCUAUGUUAUAAUCGCGUGGAUAUGGCACGCAAGUUUCUACCGGGCACCGUAAAUGUCCGACUGGAGCCGUUCGGGCGGCUAUAAACAGACCUCAGGCCCGAAGCGUGGCGGCACCUGCCGCCGGUGGUAAAAAAGAUCGGAAGAGCACACGUCU [U7C G9A U11G C12U C13U], the “aptazyme ON/OFF ratio” value worked out at 1.45.

With GGGUCGAACGUGUAUAAUCGCGUGGAUAUGGCACGCAAGUUUCUACCGGGCACCGUAAAUGUCCGACUGGAGCCGUUCGGGCGGCUAUAAACAGACCUCAGGCCCGAAGCGUGGCGGCACCUGCCGCCGGUGGUAAAAAAGAUCGGAAGAGCACACGUCU [U7A U8A G9C U10G C12G C13U], the “aptazyme ON/OFF ratio” value was 1.22.

For the variant GGGUCGCGUAUCCAUAAUCGCGUGGAUAUGGCACGCAAGUUUCUACCGGGCACCGUAAAUGUCCGACUGGAGCCGUUCGGGCGGCUAUAAACAGACCUCAGGCCCGAAGCGUGGCGGCACCUGCCGCCGGUGGUAAAAAAGAUCGGAAGAGCACACGUCU [U7C U8G G9U U10A], the “aptazyme ON/OFF ratio” value stood at 1.12.

Consider GGGUCGUUAAGCGAUAAUCGCGUGGAUAUGGCACGCAAGUUUCUACCGGGCACCGUAAAUGUCCGACUGGAGCCGUUCGGGCGGCUAUAAACAGACCUCAGGCCCGAAGCGUGGCGGCACCUGCCGCCGGUGGUAAAAAAGAUCGGAAGAGCACACGUCU [G9A U10A U11G C13G], for which the “aptazyme ON/OFF ratio” value amounted to 1.11.

Take GGGUCGAGAUUAGAUAAUCGCGUGGAUAUGGCACGCAAGUUUCUACCGGGCACCGUAAAUGUCCGACUGGAGCCGUUCGGGCGGCUAUAAACAGACCUCAGGCCCGAAGCGUGGCGGCACCUGCCGCCGGUGGUAAAAAAGAUCGGAAGAGCACACGUCU [U7A U8G G9A C12A C13G]: the “aptazyme ON/OFF ratio” value was found to be 1.19.

With GGGUCGCAUGAUUAUAAUCGCGUGGAUAUGGCACGCAAGUUUCUACCGGGCACCGUAAAUGUCCGACUGGAGCCGUUCGGGCGGCUAUAAACAGACCUCAGGCCCGAAGCGUGGCGGCACCUGCCGCCGGUGGUAAAAAAGAUCGGAAGAGCACACGUCU [U7C U8A G9U U10G U11A C12U C13U], the “aptazyme ON/OFF ratio” value was 1.1.

On to GGGUCGGAAAUUCAUAAUCGCGUGGAUAUGGCACGCAAGUUUCUACCGGGCACCGUAAAUGUCCGACUGGAGCCGUUCGGGCGGCUAUAAACAGACCUCAGGCCCGAAGCGUGGCGGCACCUGCCGCCGGUGGUAAAAAAGAUCGGAAGAGCACACGUCU [U7G U8A G9A U10A C12U], for which the “aptazyme ON/OFF ratio” value worked out at 1.19.

Take GGGUCGUAUUGGGAUAAUCGCGUGGAUAUGGCACGCAAGUUUCUACCGGGCACCGUAAAUGUCCGACUGGAGCCGUUCGGGCGGCUAUAAACAGACCUCAGGCCCGAAGCGUGGCGGCACCUGCCGCCGGUGGUAAAAAAGAUCGGAAGAGCACACGUCU [U8A G9U U11G C12G C13G]: the “aptazyme ON/OFF ratio” value was determined as 1.24.

For the variant GGGUCGACGUCUGAUAAUCGCGUGGAUAUGGCACGCAAGUUUCUACCGGGCACCGUAAAUGUCCGACUGGAGCCGUUCGGGCGGCUAUAAACAGACCUCAGGCCCGAAGCGUGGCGGCACCUGCCGCCGGUGGUAAAAAAGAUCGGAAGAGCACACGUCU [U7A U8C U11C C12U C13G], the “aptazyme ON/OFF ratio” value amounted to 1.29.

Consider GGGUCGUUAGAGCAUAAUCGCGUGGAUAUGGCACGCAAGUUUCUACCGGGCACCGUAAAUGUCCGACUGGAGCCGUUCGGGCGGCUAUAAACAGACCUCAGGCCCGAAGCGUGGCGGCACCUGCCGCCGGUGGUAAAAAAGAUCGGAAGAGCACACGUCU [G9A U10G U11A C12G], for which the “aptazyme ON/OFF ratio” value stood at 1.33.

GGGUCGCACUGUCAUAAUCGCGUGGAUAUGGCACGCAAGUUUCUACCGGGCACCGUAAAUGUCCGACUGGAGCCGUUCGGGCGGCUAUAAACAGACCUCAGGCCCGAAGCGUGGCGGCACCUGCCGCCGGUGGUAAAAAAGAUCGGAAGAGCACACGUCU [U7C U8A G9C U11G C12U]: the “aptazyme ON/OFF ratio” value was 1.29.

Consider GGGUCGGGCAGCCAUAAUCGCGUGGAUAUGGCACGCAAGUUUCUACCGGGCACCGUAAAUGUCCGACUGGAGCCGUUCGGGCGGCUAUAAACAGACCUCAGGCCCGAAGCGUGGCGGCACCUGCCGCCGGUGGUAAAAAAGAUCGGAAGAGCACACGUCU [U7G U8G G9C U10A U11G], for which the “aptazyme ON/OFF ratio” value amounted to 1.11.
